Measured values reported in publication PMC2797645, “Structure of the HCMV UL16-MICB Complex Elucidates Select Binding of a Viral Immunoevasin to Diverse NKG2D Ligands” (PLoS Pathogens, 2010).

B1: MICB*02 α1α2-platform domain (MICBpf) (domain or fragment)
chain: EPHSLRYNLMVLSQDESVQSGFLAEGHLDGQPFLRYDRQKRRAKPQGQWAEDVLGAETWDTETEDLTENGQDLRRTLTHIKDQKGGLHSLQEIRVCEIHEDSSTRGSRHFYYNGELFLSQNLETQESTVPQSSRAQTLAMNVTNFWKEDAMKTKTHYRAMQADCLQKLQRYLKSGVAIRRT
B2: UL16 ectodomain, monomeric, untagged (domain or fragment)
chain: VDLGSKSSNSTCRLNVTELASIHPGETWTLHGMCISICYYENVTEDEIIGVAFTWQHNESVVDLWLYQNDTVIRNFSDITTNILQDGLKMRTVPVTKLYTSRMVTNLTVGRYDCLRCENGTTKIIERLYVRLGSLYPRPPGSGLAKHPSVSADEELSA
modifications: N-linked glycans; N-acetylglucosamine seen at asparagines 35, 41, 68, 84, 95, 101 and 132 in the crystal (after EndoH)
notes: UL16 of human cytomegalovirus, ectodomain residues 27-184; the cDNA construct also held the N-terminal signal peptide (residues 1-26), then a thrombin cleavage site and human IgG1-Fc; Residues of the thrombin site may remain at the C-terminus after cleavage; For the crystal the complex was partly deglycosylated with EndoH after complex formation; for SPR the glycosylated protein was used; also …

Assays:
[1] = target: B2; experiment: SPR; MICBpf or MICB α1-α3 covalently immobilised on a CM5 chip by amine coupling; untagged monomeric UL16 as analyte, 50 µl/min; kinetic fit (1:1 binding with mass transfer) and equilibrium fit (1:1 Langmuir isotherm); chip not regenerated; conditions: both partners purified
[2] = target: T1, Fc-tagged ULBP2 (human, UniProt Q9BZM5 26-217); experiment: SPR; Fc-tagged ULBP ligands captured on a Protein A-G CM5 chip, diluted in HBS-EP pH 7.4 at 25°C; untagged monomeric UL16 as analyte, 50 µl/min; regeneration with 10 mM glycine pH 1.7; conditions: both partners purified
T1 construct: ULBP2 (RAET1H), human NKG2D ligand; Captured by its Fc on a Protein A-G chip; also called RAET1H; source: bought: R&D Systems
T1 sequence: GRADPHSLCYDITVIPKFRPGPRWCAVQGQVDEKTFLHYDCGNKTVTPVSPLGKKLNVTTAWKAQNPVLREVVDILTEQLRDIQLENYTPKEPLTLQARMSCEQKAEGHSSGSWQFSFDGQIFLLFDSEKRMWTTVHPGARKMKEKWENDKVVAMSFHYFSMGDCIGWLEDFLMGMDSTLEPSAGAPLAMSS

[3] = target: T2, Fc-tagged ULBP1 (human, UniProt Q9BZM6 26-216); experiment: as above; conditions: both partners purified
T2 construct: ULBP1 (RAET1I), human NKG2D ligand; Captured by its Fc on a Protein A-G chip; also called RAET1I; source: bought: R&D Systems
T2 sequence: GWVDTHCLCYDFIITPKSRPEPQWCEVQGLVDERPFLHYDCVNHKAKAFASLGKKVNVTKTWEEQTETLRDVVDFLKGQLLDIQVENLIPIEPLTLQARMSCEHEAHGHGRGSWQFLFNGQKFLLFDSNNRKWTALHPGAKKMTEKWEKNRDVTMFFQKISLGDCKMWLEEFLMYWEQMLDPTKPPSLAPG

[4] = target: T3, MICB*02 α1α2-platform domain (MICBpf) (human); experiment: SPR; kinetic fit
T3 chain: B1 chain

[5] = target: T4, MICB*02 ectodomain (domains α1, α2 and α3) (human, UniProt Q29980 23-298); experiment: SPR; kinetic fit
T4 chain: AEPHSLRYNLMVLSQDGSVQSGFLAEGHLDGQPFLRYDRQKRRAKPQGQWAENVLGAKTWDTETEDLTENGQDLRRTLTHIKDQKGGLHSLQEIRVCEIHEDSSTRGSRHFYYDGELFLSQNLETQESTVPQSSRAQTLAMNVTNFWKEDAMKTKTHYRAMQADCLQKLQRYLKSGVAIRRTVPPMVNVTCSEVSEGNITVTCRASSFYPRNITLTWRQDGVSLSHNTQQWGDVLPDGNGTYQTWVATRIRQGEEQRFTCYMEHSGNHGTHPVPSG

[6] = target: T5, MICB*02 ectodomain (domains α1, α2 and α3) (human, UniProt Q29980 23-298); experiment: SPR; MICBpf or MICB α1-α3 covalently immobilised on a CM5 chip by amine coupling; untagged monomeric UL16 as analyte, 50 µl/min; kinetic fit (1:1 binding with mass transfer) and equilibrium fit (1:1 Langmuir isotherm); chip not regenerated; conditions: both partners purified
T5 construct: also called complete MICB ectodomain; MICBα1α3
T5 sequence: T4 chain

Binder | Kd [1] [nM] | binding result [2] | Kd [3] [nM] | koff [4] [s⁻¹] | koff [5] [s⁻¹] | Kd [6] [nM]
B1 | 66 | – | – | – | – | –
B2 | – | binds | 12 | 0.054 | 0.045 | 67
